Measurements taken from doi:10.1101/2021.07.06.451098.

How the values were obtained:
[1] = target: VAR2CSA ectodomain (residue 1-2630) of Plasmodium falciparum 3D7 (Plasmodium falciparum 3D7); experiment: SEC
[2] = target: VAR2CSA ectodomain (residue 1-2630) of Plasmodium falciparum 3D7 (Plasmodium falciparum 3D7); experiment: cross-linking

Question: Which results are given for “VAR2CSA ectodomain (residue 1-2630) of Plasmodium falciparum 3D7 (domain or fragment)”?
Answer: stoichiometry N [1]: 2; stoichiometry N [2]: 2
